Measured values as given in the supplement of paper PMC10724198.
± gives the standard deviation of the averaged measurements.

How the values were obtained:
Saccharomyces cerevisiae [1] = test: protein stability index of tFT-peptide fusion (C-terminal peptide) (PSI (0-1 scale)); higher = more stable (slower turnover); settings: genetic background: wild type; temperature: 30 C
Saccharomyces cerevisiae [2] = test: as above
Protocol: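 MPS profiling in S. cerevisiae of the tFT-X12 degron library: putative degron peptides plus stable controls, 12 aa, fused to the C-terminus of a sfGFP-mCherry timer. Cells are FACS-sorted into 8 mCherry/sfGFP bins and deep-sequenced. PSI runs from 0 (unstable) to 1 (stable). Backgrounds are wild type, das1Δ and doa10Δ at 30 °C, and wild type, das1Δ, cdc34-1 and cdc53-1 at 37 °C; 2-3 technical replicates each.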

[3] = genetic background: cdc34-1, temperature: 37 C
[4] = genetic background: cdc53-1, temperature: 37 C
[5] = genetic background: das1 deletion, temperature: 30 C
[6] = genetic background: das1 deletion, temperature: 37 C
[7] = genetic background: doa10 deletion, temperature: 30 C
[8] = genetic background: wild type, temperature: 30 C
[9] = genetic background: wild type, temperature: 37 C
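Further: PSI is a weighted mean of sequencing reads over stability bins, variants kept only with over 10 reads, mCherry proximal and sfGFP distal, peptide attached via GGGS linker.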

Row | Sequence | protein stability index (Saccharomyces cerevisiae [1]) | protein stability index (Saccharomyces cerevisiae [2]; [3]) | protein stability index (Saccharomyces cerevisiae [2]; [4]) | protein stability index (Saccharomyces cerevisiae [2]; [5]) | protein stability index (Saccharomyces cerevisiae [2]; [6]) | protein stability index (Saccharomyces cerevisiae [2]; [7]) | protein stability index (Saccharomyces cerevisiae [2]; [8]) | protein stability index (Saccharomyces cerevisiae [2]; [9])
1 | CLLSRYRVFFLG | 0.29 ± 0.056 | 0.629 ± 0.071 | 0.7205 ± 0.0048 | 0.591 ± 0.023 | 0.706 ± 0.026 | 0.134 ± 0.014 | 0.184 ± 0.026 | 0.351 ± 0.017
2 | CLWLRCIVSILP | 0.239 ± 0.034 | 0.121 ± 0.0082 | 0.248 ± 0.0081 | 0.184 ± 0.028 | 0.321 ± 0.01 | 0.16 ± 0.0074 | 0.168 ± 0.025 | 0.30428 ± 0.00014
3 | CPVSFSFCLKVL | 0.045 ± 0.016 | 0.348 ± 0.019 | 0.431 ± 0.03 | 0.32 ± 0.026 | 0.468 ± 0.016 | 0.0628 ± 0.019 | 0.0823 ± 0.021 | 0.115 ± 0.063
4 | CRCLFVVKNWLS | 0.262 ± 0.017 | 0.62 ± 0.039 | 0.706 ± 0.012 | 0.623 ± 0.015 | 0.688 ± 0.04 | 0.147 ± 0.029 | 0.167 ± 0.013 | 0.293 ± 0.06
5 | CSRTRLHCFTAS | 0.712 ± 0.011 | 0.696 ± 0.062 | 0.7452 ± 0.0029 | 0.647 ± 0.028 | 0.74183 ± 0.00066 | 0.5808 ± 0.0019 | 0.585 ± 0.027 | 0.6796 ± 0.005
6 | CSSIFSSSDCYA | 0.7457 ± 0.0014 | 0.681 ± 0.059 | 0.7582 ± 0.0047 | 0.672 ± 0.029 | 0.7219 ± 0.0061 | 0.68 ± 0.01 | 0.68 ± 0.018 | 0.731 ± 0.011
7 | CVFCRVAVGVDG | 0.516 ± 0.026 | 0.5389 ± 0.0011 | 0.5838 ± 0.0043 | 0.438 ± 0.03 | 0.616 ± 0.0086 | 0.428 ± 0.028 | 0.439 ± 0.0076 | 0.5899 ± 0.0034
8 | CVFVRCVDCMSG | 0.465 ± 0.024 | 0.553 ± 0.013 | 0.544 ± 0.041 | 0.384 ± 0.031 | 0.594 ± 0.0081 | 0.354 ± 0.034 | 0.387 ± 0.015 | 0.579 ± 0.0085
9 | CVLGWCSLIAWC | 0.284 ± 0.018 | 0.201 ± 0.044 | 0.238 ± 0.032 | 0.234 ± 0.015 | 0.231 ± 0.011 | 0.245 ± 0.025 | 0.242 ± 0.0093 | 0.1967 ± 0.0017
10 | CWLFVWVRVISL | 0.186 ± 0.033 | 0.0995 ± 0.049 | 0.118 ± 0.01 | 0.155 ± 0.038 | 0.23174 ± 3.6e-05 | 0.103 ± 0.024 | 0.12 ± 0.033 | 0.158 ± 0.018
11 | DCLSFVLFLFLC | 0.183 ± 0.017 | 0.203 ± 0.038 | 0.259 ± 0.015 | 0.239 ± 0.025 | 0.39151 ± 0.00036 | 0.149 ± 0.007 | 0.134 ± 0.022 | 0.149 ± 0.0066
12 | DFCCGVILTCVC | 0.279 ± 0.01 | 0.0751 ± 0.0081 | 0.106 ± 0.011 | 0.191 ± 0.025 | 0.233 ± 0.0083 | 0.156 ± 0.012 | 0.184 ± 0.019 | 0.193 ± 0.023
13 | DGGHLVGHDLFY | 0.727 ± 0.024 | 0.716 ± 0.023 | 0.747 ± 0.023 | 0.656 ± 0.023 | 0.758 ± 0.032 | 0.657 ± 0.016 | 0.664 ± 0.053 | 0.78 ± 0.0091
14 | DIGCLWSKTRLC | 0.431 ± 0.12 | 0.669 ± 0.019 | 0.7585 ± 0.0073 | 0.652 ± 0.0094 | 0.763 ± 0.015 | 0.324 ± 0.022 | 0.359 ± 0.017 | 0.6042 ± 0.0039
15 | DILQITNIKQKR | 0.572 ± 0.16 | 0.71 ± 0.041 | 0.741 ± 0.015 | 0.676 ± 0.038 | 0.731 ± 0.021 | 0.654 ± 0.014 | 0.654 ± 0.014 | 0.722 ± 0.039
16 | DVHPLFYCIPVY | 0.13922 ± 3.4e-05 | 0.0345 ± 0.018 | 0.0286 ± 0.016 | 0.101 ± 0.037 | 0.0568 ± 0.014 | 0.0881 ± 0.0095 | 0.101 ± 0.02 | 0.0474 ± 0.03
17 | FAIPFVLFFRVT | 0.224 ± 0.07 | 0.161 ± 0.02 | 0.134 ± 0.0062 | 0.257 ± 0.03 | 0.333 ± 0.017 | 0.2593 ± 0.0021 | 0.173 ± 0.024 | 0.231 ± 0.013
18 | FASALAPLSAVA | 0.4002 ± 0.0029 | 0.48 ± 0.014 | 0.494 ± 0.022 | 0.366 ± 0.044 | 0.529 ± 0.001 | 0.307 ± 0.0091 | 0.358 ± 0.036 | 0.509 ± 0.0079
